Test system: K4 kissing-loop RNA reporter
Assay: apparent KD of K4 kissing-loop reporter; higher = weaker reporter binding
Details: Eterna round: R107; input ligand: arginine 13.2 mM
Procedure: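 RNA-MaP round R107: designed RNA switches with theophylline, tryptophan, arginine or FMN aptamers are transcribed on-chip within common flanks. They are titrated with a labelled K4 kissing-loop RNA reporter in RNA-MaP buffer (100 mM Tris pH 7.5, 80 mM KCl, 4 mM MgCl2), without ligand or with the indicated ligand. Median apparent KD per design.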
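Note: bound reporter read as fluorescence of individual clusters on recovered sequencing chips by microscopy, with normalized cluster intensities fitted with a binding model.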

Sequence | apparent KD of K4 kissing-loop reporter [µM]
UGUCAUUGGUCUGAUACCAGUUGAUAAACUGGAGUGAUGUUCCUCGACGAAUACGUCGACAACCCUUGGCAGCAGACCGAUGACU [TheoBS 14 #SwitchBubble 13 #StaticStem] | 0.627
GUGAGGAUCAGAAGGAGCGUCGGCAAUCCAGUGAUGUUGGGUGUUGGUUAUAUUUAACGACGACAGGUAGGUCGCUGAUUUUCAA [Same State Arginie B GF 21] | 0.107
UGACUACAAAAGGAAUAAUCCUAGUGAUGUUAGGAUAUGCUGAUAAGCAGAAGGAACGGAGAUCGAAGGAUCUCAUAUGUAGUCU [whbob_Ex_FMNA__2th193] | 0.0921
GUAUGUUCGAAAGAACGUACAUCUUCGGAAGGAGCGCGUGAAAACGCAGGUAGGUCGCCGAAGUUAUUAGGUAGUGAUGUUACCU [Arginine A K4 8] | 0.0991
AAAGAUCUUCUAGAAACUAGAAGAUCAAGAGAGGAUAUCCGAAUUCGGAGAAGGCUCACUAAGUGAUGUUUGGACCCAAAGGGAA [AK3 SS FMN A] | 1.52
AGUGAUGUAUGGCGGUUUGUCACUUAUAAUCAGGAUAUAUAAACAAAUAGAAGGGAUGGCGGAGUGAUGUUCCGCCGGCCGCCAU [FMN A Exl V5] | 0.136
AUCGUUGUCUGAGGAUAUCGGUUAUCUGUAGUGAUGUUACAGUAUAUUGAUAUUAAAGUUUCUAUUCGAGAAGGCAGACUACGUA [JR_Nu_ExcFMNB_Sub022] | 0.0654
CAUGUGUCUAUUACGAUGGAUACAUAUACUGAGGAUAUCACAUUUAUGAGAAGGCAGUAAACUGCGAGUGAUGUUCGCAGUACGU [FMN A SS t8] | 0.204
AUGGUAUUGCGAGGAUAUCCUUCAAACGUGACACUAACGGCAGUGAUGUUGCCGGCGUCGAUCAGAGGAGAAGGCGCGGUGUUAU [Exclusion FMN B GF 23] | 0.117
GCCAGUGCGCGAAGGAGCGCCGUGACAGGUUACUGCCUUGGGCAGUGAUGUUGCUCAAUCUGGCAGGUAGGUCGCGUGCACUGGC | 0.184
GUGCAGUGAUGUUGCACGAGGAAAGACGAUACCAGCCGUAAAUAUGGCCCUUGGCAGCGUGGGCUAGCACAAAAUGUGCUAGUCU [Zareatza] | 0.109
AAACGCUUGAAUAACAAGCGAAAUAAAAUUCGAGGACCGGUACGGCCGCCACUCGGGCUAACUGCGAGUGAUGUUCGAAAAUAAA [Mat - Mod of OpenEnded 3 - D17] | 0.191
GCCGUACGCAUGGAUACCAGUUGCGAAGUGAUGUUUCGGGCGAUCAAAGGAUCGCCAGACAACCCUUGGCAGCCAUGCGUACGGC | 0.506
GCCGUACGCAUGGAUACCAGAGAUGUUAAUCUCGAUGCCAGUGAUGUUGGCUUUAGCUAUCUCCCUUGGCAGCCAUGCGUACGGC | 0.608
UUAGAGAUCUCAGGAUAUCAGUGAUGUUGGUUGCCAGAUCUGAGAUAGAAUUCUAUCUCAGAUCAAUGAGAAGGGAGAUCUCAUU [AK4 Exc FMN B] | 0.313
AUCAGUUCAGCUGAUACCAGUCAGGAGUGAUGUUCCUGCUCGCGUCAGCCGCGUCGACAAGACCCUUGGCAGCAGCUCUAAGUGU [theeternabot_exclusion_KL_Theo_B_40] | 0.0981
UGAUAGGACAGAAGGAGCGGGAGUGAUGUUCCCAAAGGAAGGUCUAGCAAAGCUGGACCCUCCCAGGUAGGUCGCUGUCCUAUCU [ArgBX 4 #SwitchBubble #StaticStem] | 0.123
AGACUACCACACUGUCAAUAGACAGUGAACUAGGAUAUGCUGAUAAGCAGAAGGAGUGAUGUUCCUAAUAAGGUAGUCAUAUAAU [FmnAX 15 #SwitchBubble #StaticStem #K4Early] | 0.481
AGGUCUGCACGAAGGAGCGCCCUGACAGGUUGCUGCCGUGGGCAGUGAUGUUGCUCAGUCCGGCAGGUAGGUCGCGUGCAGACCU | 0.109
UGAUCUCGGCAGUGAUGUUGCAUAUGAGAAGGAGCGCACGAAAGUGCAGGUAGGUCGCUCAGCCACGACGAAAGUCGCGAGAUCU [#SwitchBubble 3 #K4Early] | 0.259
UUUCGUUUCGUCUGACAUAAUUGGCUAGAAGGAGCGGUAAAAUUACCAGGUAGGUCGCUAGCCCAGUGAUGUUGGGACUAGCGUA [Edries] | 0.107
UGACUGGACUGAAGGAGCGCGAACUCCUAGUGAUGUUAGGAAAUACGAGACAAAGUCUCGACGCAGGUAGGUCGCAGUCUAGUCU [ArgBS 15 #SwitchBubble #StaticStem] | 0.0866
UAAUCCUAAUGAUAAUAAUCAAGUGGUGGACGAGGACCGGUACGGCCGCCACUCGAAAAUGCAGUGAUGUUGUAAUACGGAUAAU [Exclusion - Tryptophan A (Freestyle 3)] | 0.46
GGUAGCAUGGCGGCCGCCACUUUUACUGGAUCGGAAACGAUCCAGUAUUGUGUAGUGAUGUUACAAAGGACCGGGCCAUGCUACC | 0.188
UUUUGCUAGCGAAACGCUAGCUUAACAGAUACCAGUCGCGAAAGCGACCCUUGGCAGCUGCUGAGUGAUGUUCAGGUGAGAGUUA | 0.221
UGACUGGACUGAAGGAGCGCUAAACUCCUAGUGAUGUUAGGGAAACAAGACAAAGUCUUGAGGCAGGUAGGUCGCAGUCUAGUCU [FiskerMod 3 - Jieux - Same State - Arginine B] | 0.199
AAAGUGUCAGCACGAGUGAUGUUCGUGGAUACCAGCCUCGAUAAAGGCCCUUGGCAGCCGAAAAGUCAAGGGCUGGCACAUAAAA [KL-XTheo-A11] | 0.205

From the supplement of paper PMC9170038
